Here are results for five molecules from paper PMC12581835, “A kinetic ruler controls mRNA poly(A) tail length”.

Data set [1] has as its target Nab2-FRB (S. cerevisiae | not stated).
Data set [2] concerns the target T1, SII-Nab2 (Saccharomyces cerevisiae, UniProt P32505 1-525).
T1 sequence: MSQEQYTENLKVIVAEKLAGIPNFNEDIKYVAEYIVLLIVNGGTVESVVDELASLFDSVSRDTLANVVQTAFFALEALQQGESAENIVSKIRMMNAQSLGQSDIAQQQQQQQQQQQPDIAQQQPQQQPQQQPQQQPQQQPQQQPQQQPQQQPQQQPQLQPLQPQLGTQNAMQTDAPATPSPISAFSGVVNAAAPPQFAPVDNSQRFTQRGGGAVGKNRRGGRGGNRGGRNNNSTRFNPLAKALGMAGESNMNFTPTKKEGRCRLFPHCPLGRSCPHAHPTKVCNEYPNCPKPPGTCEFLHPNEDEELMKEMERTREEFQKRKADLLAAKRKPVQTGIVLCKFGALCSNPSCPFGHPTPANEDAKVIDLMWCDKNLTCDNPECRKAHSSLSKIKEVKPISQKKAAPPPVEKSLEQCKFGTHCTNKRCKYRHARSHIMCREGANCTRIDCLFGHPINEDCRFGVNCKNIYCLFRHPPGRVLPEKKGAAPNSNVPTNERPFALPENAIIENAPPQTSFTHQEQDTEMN
Briefly: switchSENSE; kon 2.05e6 +/- 0.14e6 M-1 s-1; Kd only in Fig 2E table; switchSENSE: 12.5 mM HEPES-KOH pH 8.0, 75 mM KOAc, 1 mM Mg(OAc)2, 0.025 mM EDTA, 25 C; EMSA: polyadenylation buffer + 5% glycerol, 10 nM RNA, 30 C 1.5 h, native PAGE pH 6.4 at 4 C. The settings on record: protein: recombinant; tags: N-terminal SII; label: red dye on NL-B48; chip-tethered; 68 bp dsDNA (nicked) with 3' RNA overhang 60 nt. (In general: Mobility shift assays separate free from complexed probe on a gel.)

In data set [3] the target is T1, SII-Nab2. Nature of the data set: switchSENSE; kon 1.2e6 +/- 0.17e6 M-1 s-1; Kd only in Fig 2E table; switchSENSE: 12.5 mM HEPES-KOH pH 8.0, 75 mM KOAc, 1 mM Mg(OAc)2, 0.025 mM EDTA, 25 C; EMSA: polyadenylation buffer + 5% glycerol, 10 nM RNA, 30 C 1.5 h, native PAGE pH 6.4 at 4 C. The following applies: protein: recombinant; tags: N-terminal SII; label: red dye on NL-B48; chip-tethered; 68 bp dsDNA (nicked) with 3' RNA overhang 30 nt.

Data set [4] addresses T2, Nab2-6xHis (Saccharomyces cerevisiae, UniProt P32505 1-525).
T2 sequence: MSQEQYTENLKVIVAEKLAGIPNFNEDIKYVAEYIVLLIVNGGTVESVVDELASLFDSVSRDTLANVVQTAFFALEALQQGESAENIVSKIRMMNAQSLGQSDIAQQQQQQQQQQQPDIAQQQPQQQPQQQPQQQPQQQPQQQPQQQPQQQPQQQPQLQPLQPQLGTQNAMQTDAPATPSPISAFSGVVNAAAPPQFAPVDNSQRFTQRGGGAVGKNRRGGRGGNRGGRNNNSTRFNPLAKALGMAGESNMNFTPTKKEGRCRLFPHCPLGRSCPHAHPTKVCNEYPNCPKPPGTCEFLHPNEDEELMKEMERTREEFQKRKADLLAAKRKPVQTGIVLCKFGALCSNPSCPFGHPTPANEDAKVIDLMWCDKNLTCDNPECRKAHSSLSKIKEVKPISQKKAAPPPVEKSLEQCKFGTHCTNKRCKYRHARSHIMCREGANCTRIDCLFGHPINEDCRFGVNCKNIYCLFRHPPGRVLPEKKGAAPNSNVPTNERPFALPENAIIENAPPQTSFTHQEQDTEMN
Nature of the data set: SEC-MALS; bimodal peak; one Nab2 with 1-3 A30; dimer less stable; switchSENSE: 12.5 mM HEPES-KOH pH 8.0, 75 mM KOAc, 1 mM Mg(OAc)2, 0.025 mM EDTA, 25 C; EMSA: polyadenylation buffer + 5% glycerol, 10 nM RNA, 30 C 1.5 h, native PAGE pH 6.4 at 4 C. The settings on record: protein: recombinant; tags: C-terminal 6xHis; single strand. For orientation: Size exclusion chromatography separates by hydrodynamic size, large species first.

For data set [5], the target named is T2, Nab2-6xHis. Nature of the data set: EMSA; Hill coefficient 2.7; multiple shifted bands; switchSENSE: 12.5 mM HEPES-KOH pH 8.0, 75 mM KOAc, 1 mM Mg(OAc)2, 0.025 mM EDTA, 25 C; EMSA: polyadenylation buffer + 5% glycerol, 10 nM RNA, 30 C 1.5 h, native PAGE pH 6.4 at 4 C. The following applies: protein: recombinant; tags: C-terminal 6xHis; label: Atto680; single strand.

In data set [1], Nab2-FKBP12 displayed a modal poly(A) tail length of the substrate RNA that escaped early inhibition, 1 µM Nab2 with rapamycin (∼42 As in a reaction without rapamycin) of 36 As.

B1: rA60 nanolever (mixed)
DNA 1: ATTGTGCTCGTCAGTAGTGTAAAAAAAAAAAAAAAAAAAAAAAAAAAAAAAAAAAAAAAAAAAAAAAAAAAAAAAAAAAA
DNA 2: ACACTACTGACGAGCACAATATCAGCGTTCGATGCTTCCGACTAATCAGCCATATCAGCTTACGACTA
DNA 3: TAGTCGTAAGCTGATATGGCTGATTAGTCGGAAGCATCGAACGCTGAT
modifications: 3' 60 nt RNA on DNA handle
As for B1, in data set [2], the binding signal was ~5 fold higher affinity than rA30.

B2: rA30 nanolever (mixed)
DNA 1: ATTGTGCTCGTCAGTAGTGTAAAAAAAAAAAAAAAAAAAAAAAAAAAAAA
DNA 2: ACACTACTGACGAGCACAATATCAGCGTTCGATGCTTCCGACTAATCAGCCATATCAGCTTACGACTA
DNA 3: TAGTCGTAAGCTGATATGGCTGATTAGTCGGAAGCATCGAACGCTGAT
modifications: 3' 30 nt RNA on DNA handle
For B2, in data set [3], the binding signal was ~0.2 affinity relative to rA60.

B3: A30 (R002) (ssRNA)
RNA: AAAAAAAAAAAAAAAAAAAAAAAAAAAAAA
modifications: phosphate
As to B3, the binding result in data set [4] is on record as “binds”.

B4: Atto680-A59 (R003) (ssRNA)
RNA: AAAAAAAAAAAAAAAAAAAAAAAAAAAAAAAAAAAAAAAAAAAAAAAAAAAAAAAAAAA
With B4, the binding result in data set [5] is on record as “binds”.
